Reference: the supplement of paper PMC9170038

Tested on: MS2 coat protein
Experiment: apparent KD of MS2 coat protein; designed switch direction (-1 OFF switch, 1 ON switch): -1; higher = weaker reporter binding
Outline: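 Designed RNA switches were transcribed on Illumina chips by stalled E. coli RNA polymerase and titrated with SNAP-549-labelled MS2 coat protein from 0.7 or 1.5 nM, doubling to 3 µM. Step length ran from 0.8–1.5 h at the lowest concentration to 10–20 min at the highest. The apparent KD is the median over clusters for each design, from curve-fitted normalised cluster fluorescence.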

[1] = input ligand: microRNA oligo, concentration not stated
[2] = Eterna round: R95, input ligand: microRNA oligo, concentration not stated
[3] = Eterna round: R95, input ligand: FMN 200 uM
[4] = Eterna round: R95, input ligand: none

Sequence	apparent KD of MS2 coat protein (input ligand: FMN 200 uM) [µM]	apparent KD of MS2 coat protein (input ligand: none) [µM]	apparent KD of MS2 coat protein [1] [µM]	apparent KD of MS2 coat protein [2] [µM]	apparent KD of MS2 coat protein [3] [µM]	apparent KD of MS2 coat protein [4] [µM]
AGCGUCUGAGGAUAUGCAUCUUAUCAGUCCGUGCGUAAGCGACAUGAGGAUCACCCAUGUAGAAGGUAGAUGCG [Eternabot (L1) Solution 10] (Eterna round: R97, puzzle: Exclusion 2)	0.0196	0.0176	–	–	–	–
AGCGUGUUAGGAUAUACACGACACUGGGUAGCGGGUGGAGGGUAGAAGGGACAUGAGGAUCACCCAUGUUCGGG [Ortere] (Eterna round: R97, puzzle: Exclusion 4)	0.0285	0.035	–	–	–	–
AGCUAGUCAGGAUAUACGUAAAUGUCGAAAGACGUAUUGGGACAUGAGGAUCACCCAUGUAGAAGGGACUAGCA [Mod of Janderson's WEB Mod v.1] (Eterna round: R96, puzzle: Exclusion 2)	0.168	0.0248	0.0197	–	–	–
AGCUGUGGCCGAGGAUAUCACGAACCAUGGAAAACCAUGGAAAUUCUACAUGAGGAUCACCCAUGUGAGAAGGCGGUCUCAGCA [Eli eng2 - 023] (Eterna round: R96, puzzle: Exclusion NG 2)	–	–	0.0125	–	–	–
AGCUGUGGCCGAGGAUAUCCACAUGAGGAUCACCCAUGUCGAUACGCCGUUAAAGGCGAUAUAAGGGAGAAGGCGGUCUCAGCA [Eli eng2 - 052] (Eterna round: R96, puzzle: Exclusion NG 2)	0.00735	0.0102	0.00669	–	–	–
AGCUGUGGCCGAGGAUAUCUAACAAUCCCAACCGAAAUAUAAUCGGACAUGAGGAUCACCCAUGUAGAGAAGGCGGUCUCAGCA [Eli eng2 - 073] (Eterna round: R96, puzzle: Exclusion NG 2)	–	–	0.137	–	–	–
AGCUGUGGCCGAGGAUAUCUGAAAACUCAAACCGAAAUAUAAUCGGACAUGAGGAUCACCCAUGUAGAGAAGGCGGUCUCAGCA [Eli eng2 - 062] (Eterna round: R96, puzzle: Exclusion NG 2)	–	–	0.0457	–	–	–
AGCUGUGGCCGAGGAUAUUCAGCCUUAAAUACCGACGUAUAGUCGGACAUGAGGAUCACCCAUGUGGAGAAGGCGGUCUCAGCA [Eli eng2 - 046] (Eterna round: R96, puzzle: Exclusion NG 2)	0.0764	0.0484	0.0345	–	–	–
AGGAUACGAGGAUAUACGCGGAGACCUCAGGGUCUACAAACACAUGAGGAUCACCCAUGUAGAAGGCGUACCAG [Eternabot (Original) Solution 11] (Eterna round: R97, puzzle: Exclusion 2)	0.394	0.042	–	–	–	–
AGGCGGAAAGUAAGGAUAUCUUGACCAAAGGGUUGAGAGAAGGUACAUGAGGAUCACCCAUGUGUUUACCGCCA [Shrinking Claw (Vienna2)] (Eterna round: R97, puzzle: Brourd's mod of Exclusion 4)	0.0124	0.0129	–	–	–	–
AGGGACGGCUGAGGAUAUAUGUAGAGUGAGAUAGUAGAAGGCAGACAUGAGGAUCACCCAUGUAUCGGUCCUCAUAUCUCGUAU [Default title] (Eterna round: R96, puzzle: Exclusion NG 1)	0.0143	0.0177	0.0159	–	–	–
AGGUAACAUGAGGAUCACCCAUGUCAGGAUAUCAUGAAGAUUAGAUUAGAGGAGAGGUUGAGAAGGGACUAUAU [Excluse me! 16 - Jieux - Exclusion 1] (puzzle: Exclusion 1)	–	–	–	0.0454	–	–
AGGUCACAUGAGGAUCACCCAUGUCAGGAUAUCGUCACUGGAGCUUCGGCUCCAGUGACGAGAAGGGACAAUUA [E1/6-A1] (Eterna round: R97, puzzle: Exclusion 1)	0.499	0.0805	–	–	–	–
AGGUGCUUCUGGAGACAUGAGGAUCACCCAUGUUGAGUUAGCGAGGAUAUCGGUAACCAUUGUUAUGAGAAGGCGCAAACCAGA [Ex NG3 #40] (Eterna round: R96, puzzle: Exclusion NG 3)	0.0229	0.0278	0.0105	–	–	–
AGGUGUAGAGGAUAUCUCUUCUCUCACAUGAGGAUCACCCAUGUCCUAAAGACCAAGGAGAGAGAAGGCUACACCA [Omei Ex5 D6] (Eterna round: R97, puzzle: Exclusion 5)	0.042	0.0418	–	–	–	–
AGGUGUAGAGGAUAUCUCUUCUCUCACAUGAGGAUCACCCAUGUCCUGGGUACCUGGGAGAGAGAAGGCUACACCA [Omei Ex5 D12] (Eterna round: R97, puzzle: Exclusion 5)	1.06	2.46	–	–	–	–

Sequence	apparent KD of MS2 coat protein (input ligand: FMN 200 uM) [µM]	apparent KD of MS2 coat protein (input ligand: none) [µM]	apparent KD of MS2 coat protein [1] [µM]	apparent KD of MS2 coat protein [2] [µM]	apparent KD of MS2 coat protein [3] [µM]	apparent KD of MS2 coat protein [4] [µM]
AGGUGUAGGUAAGGAUAUAUCUAAAACCACAUGAGGAUCACCCAUGUAGCGGGUAUCUUCGUGAGAUAGAAGGUGCACGCCGAA [Atbiasori] (Eterna round: R96, puzzle: Exclusion NG 2)	0.494	0.308	0.269	–	–	–
AGGUUGGCGUGAGGAUAUUGGAAAGGAAGUGUACAAGAAGGUACGGACCUAAAACAUGAGGAUCACCCAUGUGGUCCUUAUGCC [PowerStrip EXNG 1.26] (Eterna round: R96, puzzle: Exclusion NG 1)	0.014	0.0196	0.0112	–	–	–
AGUAACCGUCACGAAAGUGAUGGUUACACAAGCAUAUGUACAUGAGGAUCACCCAUGUCCUCAAUUGCUCGUCUUAU [Sensor 3 - 54] (puzzle: Sensor v3, turn-off variant 2)	–	–	–	0.25	0.167	0.226
AGUAACCGUCACGAAAGUGAUGGUUACACAAGUAAUGAAACAUGAGGAUCACCCAUGUCCUCAUUUGCUCGUCUUAU [Sensor 3 - 39] (puzzle: Sensor v3, turn-off variant 2)	–	–	–	0.362	0.354	0.35
AGUAACCGUCACGAAAGUGAUGGUUACAUAAGCAUAUGUACAUGAGGAUCACCCAUGUCCUCAACUGCUCGUUUUAU [Sensor 3 - 56] (puzzle: Sensor v3, turn-off variant 2)	–	–	–	0.612	0.292	0.349
AGUAACUAUCACGAAAGUGAUAGUUACAAACAAGUGAAAACAUGAGGAUCACCCAUGUCCUCAUUUGCUCGUCUUAU [Sensor 3 - 7] (puzzle: Sensor v3, turn-off variant 2)	–	–	–	0.884	0.182	0.329
AGUAACUAUCACGAAAGUGAUAGUUACACAAGUGAAUAAACAUGAGGAUCACCCAUGUCCUCAUUUGCUCGUUUUAU [Sensor 3 - 17] (puzzle: Sensor v3, turn-off variant 2)	–	–	–	0.553	0.486	0.4
AGUAACUAUCACGAAAGUGAUAGUUACAGCAAGUGAUAAACAUGAGGAUCACCCAUGUCCUCAUUUGCUCGUCUUAU [Sensor 3 - 12] (Eterna round: R96, puzzle: Sensor v3, turn-off variant 2)	0.015	0.0172	0.386	–	–	–
AGUAACUAUCACGAAAGUGAUAGUUACAGCAAGUGAUAAACAUGAGGAUCACCCAUGUCCUCAUUUGCUCGUCUUAU [Sensor 3 - 12] (puzzle: Sensor v3, turn-off variant 2)	–	–	–	0.739	0.0151	0.0127
AGUAACUCAUGAGGAUAUCACAUGAGGAUCACCCAUGUAUAGCGCGCUAUGCUAGUCCUCGUAUAUGAGAAGGUAUGAUAAAUG [JL ViennaUCT Quve mod 3] (Eterna round: R96, puzzle: Exclusion NG 2)	0.022	0.0257	0.0157	–	–	–
AGUACAUACACGAAAGUGUAUGUACAAUAAGCUUGUGGAACAUGAGGAUCACCCAUGUCCUCAUAAGCUCGUCUUAU [Mat - Sensor v3 - Turn-off var 2 - D30] (puzzle: Sensor v3, turn-off variant 2)	–	–	–	0.0714	0.0165	0.0155
AGUACUAACACGAAAGUGUUAGUACAAUAAGCUAGUGGAACAUGAGGAUCACCCAUGUCCUCAUUAGCUCGUCUUGU [Mat - Sensor v3 - Turn-off var 2 - D39] (puzzle: Sensor v3, turn-off variant 2)	–	–	–	0.0348	0.0162	0.0125
AGUACUAACACGAAAGUGUUAGUACAAUAAGCUUGUGAAACAUGAGGAUCACCCAUGUCCUCAUAAGCUCGUCUUAA [salish99_TOv2_r3_002] (puzzle: Sensor v3, turn-off variant 2)	–	–	–	0.379	0.0129	0.0108
AGUACUAACACGAAAGUGUUAGUACAAUAAGCUUGUGAAACAUGAGGAUCACCCAUGUCCUCAUAAGCUCGUCUUGU [salish99_TOv2_r3_009] (puzzle: Sensor v3, turn-off variant 2)	–	–	–	0.353	0.0152	0.0137
AGUACUAACACGAAAGUGUUAGUACAAUAAGCUUGUGGAACAUGAGGAUCACCCAUGUCCUCAUAAGCUCGUCUUAG [Mat - Sensor v3 - Turn-off var 2 - D26] (puzzle: Sensor v3, turn-off variant 2)	–	–	–	0.0623	0.0159	0.013
AGUACUAACACGAGAGUGUUAGUACAAUAAGCUUGUGAAACAUGAGGAUCACCCAUGUCCUCAUAAGCUCGUCUUAU [salish99_TOv2_r3_029] (Eterna round: R96, puzzle: Sensor v3, turn-off variant 2)	0.0153	0.0181	0.467	–	–	–
